Where two headings read alike, the source gives them in different places. Blank lines part the entries; values can stand above or below the binder they belong to.
Legend:
[1] = biological target: T1, endogenous human IL-6 produced by human synovial fibroblasts (human, UniProt P05231 30-212); assay: cell-based or functional assay
human FcRn = biological target: T2, human FcRn (human, UniProt P55899 24-297; P61769 21-119, limits assumed); assay: BIAcore, pH 6
T2 construct: also called huFcRn

cynomolgus FcRn = biological target: T3, cynomolgus FcRn (cynomolgus, UniProt Q8SPV9 24-297; Q8SPW0 21-119, limits assumed); assay: BIAcore, pH 6
T3 construct: also called cynoFcRn; cyno FcRn
T3 sequence (Q8SPV9 24-297 limits assumed, chain 1 of 2): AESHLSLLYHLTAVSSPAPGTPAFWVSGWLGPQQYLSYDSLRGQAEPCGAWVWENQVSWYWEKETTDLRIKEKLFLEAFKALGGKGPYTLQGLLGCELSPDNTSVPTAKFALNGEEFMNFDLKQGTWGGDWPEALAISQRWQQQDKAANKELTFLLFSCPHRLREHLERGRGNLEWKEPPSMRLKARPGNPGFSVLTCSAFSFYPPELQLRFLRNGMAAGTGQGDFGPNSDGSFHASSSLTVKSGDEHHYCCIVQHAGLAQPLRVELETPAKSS
T3 sequence (Q8SPW0 21-119 limits assumed, chain 2 of 2): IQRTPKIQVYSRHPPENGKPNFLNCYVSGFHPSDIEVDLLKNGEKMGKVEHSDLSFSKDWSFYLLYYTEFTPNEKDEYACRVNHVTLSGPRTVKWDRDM

recombinant human IL-6 [2] = biological target: T4, recombinant human IL-6 (human, UniProt P05231 30-212); assay: ELISA, E. coli expressed rhuIL-6 as capture reagent
T4 construct: The ELISA used an E. coli expressed recombinant human IL-6 preparation; The TF-1 assay used recombinant bacterially derived human IL-6 (R&D); also called rhuIL-6
Protocol: ELISA assays were performed according to standard protocols.

[3] = biological target: T1, endogenous human IL-6 produced by human …; assay: cell-based or functional assay; remark: listed apart in the source
recombinant human IL-6 [4] = biological target: T4, recombinant human IL-6; assay: cell-based or functional assay
recombinant human IL-6 [5] = biological target: T4, recombinant human IL-6; assay: cell-based or functional assay; remark: listed apart in the source
recombinant human IL-6 [6] = biological target: T4, recombinant human IL-6; assay: ELISA, E. coli derived recombinant human IL-6 as capture reagent; drawn table 'Avg EC50 (pM)', n = 4
[7] = biological target: endogenous human IL-6 produced by human synovial fibroblasts (human) (UniProt P05231)
Chain of endogenous human IL-6 produced by human synovial fibroblasts (human) (P05231 30-212): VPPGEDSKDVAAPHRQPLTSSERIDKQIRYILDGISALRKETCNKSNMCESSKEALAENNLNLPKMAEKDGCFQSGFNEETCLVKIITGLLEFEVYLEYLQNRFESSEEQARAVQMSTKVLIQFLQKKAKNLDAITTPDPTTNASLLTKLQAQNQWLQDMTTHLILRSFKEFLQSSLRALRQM

[8] = biological target: endogenous human IL-6 produced by human synovial fibroblasts (human) (UniProt P05231); assay: cell-based or functional assay
recombinant human IL-6 [9] = biological target: T4, recombinant human IL-6; assay: BIAcore; Example 1 summarises WO 2008/065378; BIAcore; bound at the assay's detection level
recombinant human IL-6 [10] = biological target: T4, recombinant human IL-6; assay: affinity estimated from the TF-1 Cell Proliferation Assay (cell-based, not a direct binding assay); Example 1 summarises WO 2008/065378; estimated from the TF-1 Cell Proliferation Assay, not BIAcore

IC50, inhibition of endogenous IL-6 induced VEGF release from human synovial fibroblasts [1]: 0.0012 nM | Kd (human FcRn): 226 nM | Kd (cynomolgus FcRn): 365 nM | EC50 (recombinant human IL-6 [2]): 6.5 pM | IC50, inhibition of endogenous IL-6 induced VEGF release from human synovial fibroblasts [3]: 1.2 pM | IC50, inhibition of IL-6 induced TF-1 cell proliferation (recombinant human IL-6 [4]): 5.2 pM
B1: Antibody 18E (antibody, human IgG1, kappa)
heavy: EVQLVESGGGLVQPGGSLRLSCAASGFTISSNYMIWVRQAPGKGLEWVSDLYYYAGDTYYADSVKGRFTMSRDISKNTVYLQMNSLRAEDTAVYYCARWADDHPPWIDLWGRGTLVTVSSASTKGPSVFPLAPSSKSTSGGTAALGCLVKDYFPEPVTVSWNSGALTSGVHTFPAVLQSSGLYSLSSVVTVPSSSLGTQTYICNVNHKPSNTKVDKRVEPKSCDKTHTCPPCPAPELLGGPSVFLFPPKPKDTLYITREPEVTCVVVDVSHEDPEVKFNWYVDGVEVHNAKTKPREEQYNSTYRVVSVLTVLHQDWLNGKEYKCKVSNKALPAPIEKTISKAKGQPREPQVYTLPPSREEMTKNQVSLTCLVKGFYPSDIAVEWESNGQPENNYKTTPPVLDSDGSFFLYSKLTVDKSRWQQGNVFSCSVMHEALHNHYTQKSLSLSPGK
light: DIQMTQSPSTLSASVGDRVTITCRASQGISSWLAWYQQKPGKAPKVLIYKASTLESGVPSRFSGSGSGTEFTLTISSLQPDDFATYYCQQSWLGGSFGQGTKLEIKRTVAAPSVFIFPPSDEQLKSGTASVVCLLNNFYPREAKVQWKVDNALQSGNSQESVTEQDSKDSTYSLSSTLTLSKADYEKHKVYACEVTHQGLSSPVTKSFNRGEC
notes: Antibody 18 with the M252Y, S254T and T256E substitutions (EU index) in the IgG1 Fc region; Expressed in CHO-K1 cells; also called Ab 18E

IC50, inhibition of endogenous IL-6 induced VEGF release from human synovial fibroblasts [1]: 2.8 nM | IC50, inhibition of IL-6 induced TF-1 cell proliferation (recombinant human IL-6 [5]): 5.9 pM | EC50 (recombinant human IL-6 [6]): 0.0078 nM
B2: IL-6 antibody A (antibody, V domains shown)
VH: QEQLVESGGGLVQPEGSLTLTCIASGWSFSSSHYMCWVRQAPGKGLEWIGCIYTGSGMTYYASWAKGRFTISKTSSTTVTLQMTSLTAADTATYFCARKIGGTDDYGDSLYFSLWGQGTLVTVSS
VL: AQVLTQTPSPVSAAVGGTVTINCQASQSVYNNSKLAWYQQKPGQPPKLLIYKASSLASGVSSRFKGSGSGTQFTLTISGVQCDDAATYYCQHEFSCSSADCVAFGGGTEVVVKG

Kd (human FcRn): 2610 nM | Kd (cynomolgus FcRn): 1160 nM | IC50, inhibition of endogenous IL-6 induced VEGF release from human synovial fibroblasts [7]: 1.3 nM | EC50 (recombinant human IL-6 [2]): 6.1 pM | IC50, inhibition of endogenous IL-6 induced VEGF release from human synovial fibroblasts [8]: 1.3 pM | IC50, inhibition of IL-6 induced TF-1 cell proliferation (recombinant human IL-6 [4]): 4.5 pM | Kd (recombinant human IL-6 [9]): < 0.01 nM | Kd (recombinant human IL-6 [10]): 0.4 pM
B3: Antibody 18 (antibody, V domains shown)
VH: EVQLVESGGGLVQPGGSLRLSCAASGFTISSNYMIWVRQAPGKGLEWVSDLYYYAGDTYYADSVKGRFTMSRDISKNTVYLQMNSLRAEDTAVYYCARWADDHPPWIDLWGRGTLVTVSS
VL: DIQMTQSPSTLSASVGDRVTITCRASQGISSWLAWYQQKPGKAPKVLIYKASTLESGVPSRFSGSGSGTEFTLTISSLQPDDFATYYCQQSWLGGSFGQGTKLEIK
notes: Human anti-IL-6 IgG1 with a wild type Fc region; It is the parent of Antibody 18E; also called Ab 18

IC50, inhibition of endogenous IL-6 induced VEGF release from human synovial fibroblasts [1]: 2.2 nM | IC50, inhibition of IL-6 induced TF-1 cell proliferation (recombinant human IL-6 [5]): 78.1 pM | EC50 (recombinant human IL-6 [6]): 0.0141 nM
B4: IL-6 antibody B (antibody, V domains shown)
VH: QSVEESGGRLVTPGTPLTLTCTVSGFSLSAYDMYWVRQAPGKGLEWIGITYGSGKTYYARWAKGRFTISKTSTTVALKITSPTTEDTATYFCARDSGYPGGSSAYNLWGQGTLVTVSS
VL: AAVLTQTPSAVSAAVGGTVTISCQSSQSVTVNNDLAWYQQRPGQPPKLLIYRASNLASRVPSRFSGSGSGTQFTLTISGVQCDDAATYYCLGGYDDDASNAFGGGTEVVVKG

From patent US20120034212A1 (AstraZeneca / MedImmune, published 2012)
